According to article PMC12884772, “Macrophagic Sclerostin Loop2‐ApoER2 Interaction Required by Sclerostin for Cardiovascular Protective Action” (Advanced Science, 2025):

Biological target: His-sclerostin loop2 (Limits are not printed (Table S1 not shown). Loop2 taken by convention as the cystine-knot segment Cys-Cys, mature 84-109 in mouse. The paper's mature numbering (I94..W99, with V97 specific to mouse))
Sequence (chain, as listed by the source): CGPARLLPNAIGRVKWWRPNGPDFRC
Test: BLI; His-sclerostin loop2 loaded on anti-penta-HIS (HIS1K) biosensors, immersed in ApoER2-LA7 at different concentrations
Conditions: both partners purified

Kd: 1900 nM
B1: ApoER2-LA7 (P290-L326) (peptide)
peptide: PCRENEFQCGDGTCVLAIKRCNQERDCPDGSDEAGCL
notes: LDLR type A repeat 7 (LA7) of ApoER2, P290-L326; The form with D-residues at the first and last three positions was used only in vivo and is not this molecule; also called ApoER2-Pep; ApoER2 peptide tool
